Among the data in patent US20150210761A1 (SAMSUNG ELECTRONICS, published 2015) are binding result, Kd and IC50 values, retold here.

One experiment has as its target T1, hAng1 (human, UniProt Q15389 20-498, limits assumed).
T1 construct: Tested by the same SPR set-up as hAng2; the construct is not described; also called human Ang1
T1 sequence (looked up): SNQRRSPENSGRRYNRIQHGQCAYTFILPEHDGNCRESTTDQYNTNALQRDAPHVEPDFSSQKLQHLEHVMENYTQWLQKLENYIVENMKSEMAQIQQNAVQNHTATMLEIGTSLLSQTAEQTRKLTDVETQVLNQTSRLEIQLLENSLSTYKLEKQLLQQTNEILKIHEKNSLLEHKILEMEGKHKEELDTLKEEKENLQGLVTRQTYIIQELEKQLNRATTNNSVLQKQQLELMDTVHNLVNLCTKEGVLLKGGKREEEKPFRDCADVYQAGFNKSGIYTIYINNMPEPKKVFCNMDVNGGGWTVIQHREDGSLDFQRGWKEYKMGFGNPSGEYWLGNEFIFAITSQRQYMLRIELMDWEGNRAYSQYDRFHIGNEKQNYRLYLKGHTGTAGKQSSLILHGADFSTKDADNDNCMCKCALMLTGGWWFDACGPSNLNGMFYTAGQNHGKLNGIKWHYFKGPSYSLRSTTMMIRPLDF
Kind of experiment: SPR, BIAcore T100.

The target of experiment [1] is T2, recombinant hAng-2 (C-His, R&D Systems) (human, UniProt O15123 19-496).
T2 construct: Bought protein; Captured on an anti-His antibody chip for SPR; also called human Ang2; not shown: C-terminal His tag
T2 sequence: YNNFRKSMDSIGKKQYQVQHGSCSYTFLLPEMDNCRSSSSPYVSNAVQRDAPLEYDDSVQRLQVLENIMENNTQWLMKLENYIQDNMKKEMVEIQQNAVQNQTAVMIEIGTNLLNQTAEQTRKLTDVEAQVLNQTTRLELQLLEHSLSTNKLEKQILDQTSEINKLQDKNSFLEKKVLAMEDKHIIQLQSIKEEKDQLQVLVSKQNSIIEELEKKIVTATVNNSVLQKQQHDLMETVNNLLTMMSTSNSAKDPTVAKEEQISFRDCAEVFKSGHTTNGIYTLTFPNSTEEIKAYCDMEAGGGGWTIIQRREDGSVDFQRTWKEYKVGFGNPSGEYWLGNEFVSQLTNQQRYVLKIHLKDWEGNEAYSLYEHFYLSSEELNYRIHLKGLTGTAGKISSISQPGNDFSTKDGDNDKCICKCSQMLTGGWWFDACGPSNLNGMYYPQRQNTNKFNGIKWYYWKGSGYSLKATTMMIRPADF
Put plainly: SPR, BIAcore T100; hAng-2 C-His captured on anti-His chip, antibody flowed. The method, then:
To more exactly measure the binding affinity of the anti-Ang2 antibodies to antigen Ang2, the binding affinity of the above antibodies to the antigen was measured by an surface plasmon resonance (SPR) method using BIAcore T100 (GE Healthcare). The SPR method uses refractive index change of light which passes a sensor chip according to the state of materials coated onto the sensor chip, and if an antigen or an antibody is flowed onto a chip coated with the antigen or antibody, it causes changes in refractive index due to their binding and Kd values are thus calculated from the measured values.
First, anti-His antibody was immobilized on a CM5 sensor chip (GE healthcare) up to 8,000 RU levels using a pH 5.0 acetate solution and an amine coupling kit (GE Healthcare). 6 μg/ml of a recombinant hAng-2 (C-His, R&D Systems) protein was flowed onto the chip to be captured at 100 to 200 RU levels.
On the technique in general: In SPR one partner is held on a chip, and binding of the other changes the refractive index at the surface.

Experiment [2] concerns the target T3, mouse Ang2 (Accession # NP-031452) (R&D Systems) (mouse, UniProt O35608 19-496).
T3 construct: Bought protein coated on the ELISA plate; also called mAng2
T3 sequence (looked up): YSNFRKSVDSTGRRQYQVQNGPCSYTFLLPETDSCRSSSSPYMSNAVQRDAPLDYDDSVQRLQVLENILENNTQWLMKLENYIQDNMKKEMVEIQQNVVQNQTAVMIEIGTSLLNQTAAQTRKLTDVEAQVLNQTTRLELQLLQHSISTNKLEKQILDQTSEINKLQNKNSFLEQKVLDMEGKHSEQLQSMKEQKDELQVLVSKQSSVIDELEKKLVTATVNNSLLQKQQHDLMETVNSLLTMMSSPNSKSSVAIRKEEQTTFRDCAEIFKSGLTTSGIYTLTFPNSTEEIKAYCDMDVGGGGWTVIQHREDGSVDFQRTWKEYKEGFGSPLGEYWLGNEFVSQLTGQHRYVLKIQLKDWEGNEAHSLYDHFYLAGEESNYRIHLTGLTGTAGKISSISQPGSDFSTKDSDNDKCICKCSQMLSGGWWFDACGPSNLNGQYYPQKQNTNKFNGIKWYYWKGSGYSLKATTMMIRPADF
Kind of experiment: ELISA on coated mouse Ang2; 50% binding concentration, which the filing calls Kd. The protocol: An ELISA was conducted to measure the binding affinity of the antibodies prepared in Example 2 to mouse Ang2(mAng2). MaxiSorp™ flat-bottom plate (Nunc) of 96-well was coated with 5-20 μg/ml of mouse Ang2 (Mouse Ang2; Accession # NP_{—}031452) (R&D Systems). Thereafter, the plate was washed five times with 0.05% (v/v) Tween-20-containing PBS (PBST) and then blocked with 1% (v/v) BSA (bovine serum albumin; Sigma)-containing PBS at a room temperature for 2 hour. Each of the anti-Ang2 antibodies was added to each well of the plate at various concentrations, and the plate was allowed to react at a room temperature for 2 hours.
Thereafter, the plate was washed five times with PBST. Then, a HRP-conjugated anti-mouse IgG antibody (Santacruz) diluted in 1% (v/v) BSA-containing PBS at a ratio of 1:1,000 (v/v) was added in an amount of 50 μl to each well to react at a room temperature for 1 hour and then, the plate was washed five times with PBST. Lastly, 100 μl of TMB substrate (Cell Signaling) was added to each well of the plate to induce color development for 3 min. and then, the reaction was ceased by the addition of 100 μl of Stop solution (Cell Signaling) and OD450 values were measured on a plate reader (Molecular Devices).
From the obtained results, 50% binding concentration (Kd) of the anti-Ang2 antibody to Ang2 protein is obtained, thereby measuring the binding intensity of each of the anti-Ang2 antibodies to Ang2.

The next experiment addresses T4, FLAG-tagged hAng-2 (human, UniProt O15123 19-496).
T4 sequence: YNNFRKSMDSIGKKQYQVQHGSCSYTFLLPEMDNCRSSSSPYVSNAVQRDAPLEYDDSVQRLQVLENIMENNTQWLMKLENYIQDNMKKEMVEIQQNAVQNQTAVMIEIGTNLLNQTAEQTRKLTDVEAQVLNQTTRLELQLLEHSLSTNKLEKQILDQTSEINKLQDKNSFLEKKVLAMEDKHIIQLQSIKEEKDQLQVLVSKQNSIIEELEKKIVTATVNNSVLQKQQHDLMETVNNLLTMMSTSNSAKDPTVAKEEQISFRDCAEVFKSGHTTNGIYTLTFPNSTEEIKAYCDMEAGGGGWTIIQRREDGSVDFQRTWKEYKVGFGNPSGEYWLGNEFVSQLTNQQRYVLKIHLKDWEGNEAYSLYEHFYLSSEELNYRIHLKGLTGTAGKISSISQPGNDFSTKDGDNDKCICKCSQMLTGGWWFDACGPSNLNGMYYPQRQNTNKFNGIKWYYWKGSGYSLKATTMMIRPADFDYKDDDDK
Kind of experiment: Ang2:Tie2 competition ELISA; hTie2-Fc coated, 400 ng/ml FLAG-tagged hAng-2, anti-FLAG-HRP detection. The protocol:
More specifically, MaxiSorp™ flat-bottom plate (Nunc) of 96-well was coated with hTie2-Fc (R&D Systems) which is a protein bound with 4 μg/ml of Fc of human IgG1. After coating, the plate was washed five times with 0.05% (v/v) Tween-20-containing PBS (phosphate buffer saline) and then blocked with 1% (v/v) BSA (bovine serum albumin; Sigma)-containing PBS at a room temperature for 2 hour.
For Ang2:Tie2 competition ELISA, each anti-Ang2 antibody obtained in Example 2 was placed at various concentrations of 400 nM-0.001 nM into each well coated with the hTie-2/Fc fusion protein along with 1% (v/v) BSA and 400 ng/ml of a FLAG-tagged hAng-2 and then, the plate was allowed to react at a room temperature for 2 hours and washed five times with PBST. After that, a HRP-conjugated anti-FLAG antibody (Sigma) diluted in 1% (v/v) BSA-containing PBS at a ratio of 1:5,000 (v/v) was added in an amount of […] to each well to react at a room temperature for 1 hour and then, the plate was washed five times with PBST. Lastly, 100 μl of TMB substrate (Cell Signaling) was added to each well of the plate to induce color development for 3 min. and then, the reaction was ceased by the addition of 100 μl of Stop solution (Cell Signaling) and OD450 values were measured on a plate reader (Molecular Devices).
(In an ELISA, binding on a coated surface is turned into a signal by an enzyme label.)

The Kd is a measure of binding affinity in units of concentration. What is called IC50 is the concentration at which inhibition is half-maximal. A low value points to inhibition by little substance.

B1: SAIT-ANG2-AB-m1B6 (antibody, V domains shown)
VH: QIQLVQSGPELKKPGETVKISCKASGYTFTNYGMNWVKQAPGKGLKWMGWINTYTGEPTYADDFKGRFAFSLETSASTAYLQINNLKNEDTATYFCARDHDGYLMDYWGQGTSVTVSS
VL: DIQMTQTTSSLSASLGDRVTISCSTSQGISNYLNWYQQKPDGTVKLLIFYTSSLHSGVPSRFSGSGSGTDYSLTISNLEPEDIATYYCQQYSKLPYTFGGGTKLEIK
notes: also called hybridoma KCLRF-BP-00307
With B1, the binding result in the experiment with hAng1 was “no binding (tested: 100 nM (highest antibody concentration))”. In addition, the figures for the dissociation constant Kd in experiment [1] and in experiment [2] were 2.3 nM and 2.1 nM, respectively. Also, the IC50 in the experiment with FLAG-tagged hAng-2 came out at 2.89 nM.
